Test results taken from patent US20150344570A1 (published 2015).

B1: GpH7-A5/GpH7-B3 variant H268_14T/GpL16-k0 (He Ab) (antibody, human IgG1, kappa)
heavy 1: not shown
heavy 2: not shown
light: DIVMTQSPLSLPVTPGEPASISCQASESLVHSNRNTYLHWYLQKPGQSPQLLIYKVSNRFSGVPDRFSGSGSGTDFTLKISRVEAEDVGVYYCSQNTHVPPTFGQGTKVEIERTVAAPSVFIFPPSDEQLKSGTASVVCLLNNFYPREAKVQWKVDNALQSGNSQESVTEQDSKDSTYSLSSTLTLSKADYEKHKVYACEVTHQGLSSPVTKSFNRGEC
notes: He Ab: mutation in one H chain only
B2: GpH7-A5/GpH7-B3 variant P271_11K/GpL16-k0 (He Ab) (antibody, human IgG1, kappa)
heavy 1: not shown
heavy 2: not shown
light: B1 light
notes: as for B1
B3: GpH7-A5/GpH7-B3 variant P271_06M/GpL16-k0 (He Ab) (antibody, human IgG1, kappa)
heavy 1: not shown
heavy 2: not shown
light: B1 light
notes: as for B1
B4: GpH7-A5/GpH7-B3 variant P271_03V/GpL16-k0 (He Ab) (antibody, human IgG1, kappa)
heavy 1: not shown
heavy 2: not shown
light: B1 light
notes: as for B1
B5: GpH7-A5/GpH7-B3 variant Q295_04F/GpL16-k0 (He Ab) (antibody, human IgG1, kappa)
heavy 1: not shown
heavy 2: not shown
light: B1 light
notes: as for B1
B6: GpH7-A5/GpH7-B3 variant P271_02A/GpL16-k0 (He Ab) (antibody, human IgG1, kappa)
heavy 1: not shown
heavy 2: not shown
light: B1 light
notes: as for B1
B7: GpH7-A5/GpH7-B3 variant Q295_07I/GpL16-k0 (He Ab) (antibody, human IgG1, kappa)
heavy 1: not shown
heavy 2: not shown
light: B1 light
notes: as for B1
B8: GpH7-A5/GpH7-B3 variant P271_07I/GpL16-k0 (He Ab) (antibody, human IgG1, kappa)
heavy 1: not shown
heavy 2: not shown
light: B1 light
notes: as for B1
B9: GpH7-A5/GpH7-B3 variant P271_18N/GpL16-k0 (He Ab) (antibody, human IgG1, kappa)
heavy 1: not shown
heavy 2: not shown
light: B1 light
notes: as for B1
B10: GpH7-A5/GpH7-B3 variant P271_04F/GpL16-k0 (He Ab) (antibody, human IgG1, kappa)
heavy 1: not shown
heavy 2: not shown
light: B1 light
notes: as for B1
B11: GpH7-A5/GpH7-B3 variant P271_16H/GpL16-k0 (He Ab) (antibody, human IgG1, kappa)
heavy 1: not shown
heavy 2: not shown
light: B1 light
notes: as for B1
B12: GpH7-A5/GpH7-B3 variant P271_19Q/GpL16-k0 (He Ab) (antibody, human IgG1, kappa)
heavy 1: not shown
heavy 2: not shown
light: B1 light
notes: as for B1
B13: GpH7-A5/GpH7-B3 variant Q295_03V/GpL16-k0 (He Ab) (antibody, human IgG1, kappa)
heavy 1: not shown
heavy 2: not shown
light: B1 light
notes: as for B1
B14: GpH7-A5/GpH7-B3 variant L234_15Y/GpL16-k0 (He Ab) (antibody, human IgG1, kappa)
heavy 1: not shown
heavy 2: not shown
light: B1 light
notes: as for B1
B15: GpH7-A5/GpH7-B3 variant P271_12R/GpL16-k0 (He Ab) (antibody, human IgG1, kappa)
heavy 1: not shown
heavy 2: not shown
light: B1 light
notes: as for B1
B16: GpH7-A5/GpH7-B3 variant P271_13S/GpL16-k0 (He Ab) (antibody, human IgG1, kappa)
heavy 1: not shown
heavy 2: not shown
light: B1 light
notes: as for B1
B17: GpH7-A5/GpH7-B3 variant P271_14T/GpL16-k0 (He Ab) (antibody, human IgG1, kappa)
heavy 1: not shown
heavy 2: not shown
light: B1 light
notes: as for B1
B18: GpH7-A5/GpH7-B3 variant P271_15Y/GpL16-k0 (He Ab) (antibody, human IgG1, kappa)
heavy 1: not shown
heavy 2: not shown
light: B1 light
notes: as for B1
B19: GpH7-A5/GpH7-B3 variant S267_18N/GpL16-k0 (He Ab) (antibody, human IgG1, kappa)
heavy 1: not shown
heavy 2: not shown
light: B1 light
notes: as for B1
B20: GpH7-A5/GpH7-B3 variant P271_20W/GpL16-k0 (He Ab) (antibody, human IgG1, kappa)
heavy 1: not shown
heavy 2: not shown
light: B1 light
notes: as for B1
B21: GpH7-A5/GpH7-B3 variant S239_14T/GpL16-k0 (He Ab) (antibody, human IgG1, kappa)
heavy 1: not shown
heavy 2: not shown
light: B1 light
notes: as for B1
B22: GpH7-A5/GpH7-B3 variant S239_19Q/GpL16-k0 (He Ab) (antibody, human IgG1, kappa)
heavy 1: not shown
heavy 2: not shown
light: B1 light
notes: as for B1
B23: GpH7-A5/GpH7-B3 variant S267_16H/GpL16-k0 (He Ab) (antibody, human IgG1, kappa)
heavy 1: not shown
heavy 2: not shown
light: B1 light
notes: as for B1
B24: GpH7-A5/GpH7-B3 variant V266_19Q/GpL16-k0 (He Ab) (antibody, human IgG1, kappa)
heavy 1: not shown
heavy 2: not shown
light: B1 light
notes: as for B1
B25: GpH7-A5/GpH7-B3 variant Q295_06M/GpL16-k0 (He Ab) (antibody, human IgG1, kappa)
heavy 1: not shown
heavy 2: not shown
light: B1 light
notes: as for B1
B26: GpH7-A5/GpH7-B3 variant Q295_02A/GpL16-k0 (He Ab) (antibody, human IgG1, kappa)
heavy 1: not shown
heavy 2: not shown
light: B1 light
notes: as for B1
B27: GpH7-A5/GpH7-B3 variant L234_04F/GpL16-k0 (He Ab) (antibody, human IgG1, kappa)
heavy 1: not shown
heavy 2: not shown
light: B1 light
notes: as for B1
B28: GpH7-A5/GpH7-B3 variant Q295_05P/GpL16-k0 (He Ab) (antibody, human IgG1, kappa)
heavy 1: not shown
heavy 2: not shown
light: B1 light
notes: as for B1
B29: GpH7-A5/GpH7-B3 variant E333_04F/GpL16-k0 (antibody, human IgG1, kappa)
heavy 1: not shown
heavy 2: not shown
light: B1 light
notes: heterodimerized IgG1, mutation in one H chain only; also called He Ab
B30: GpH7-A5/GpH7-B3 variant E333_07I/GpL16-k0 (antibody, human IgG1, kappa)
heavy 1: not shown
heavy 2: not shown
light: B1 light
notes: as for B29
B31: GpH7-A5/GpH7-B3 variant E333_05P/GpL16-k0 (antibody, human IgG1, kappa)
heavy 1: not shown
heavy 2: not shown
light: B1 light
notes: as for B29
B32: GpH7-A5/GpH7-B3 variant A330_12R/GpL16-k0 (antibody, human IgG1, kappa)
heavy 1: not shown
heavy 2: not shown
light: B1 light
notes: as for B29
B33: GpH7-A5/GpH7-B3 variant A330_15Y/GpL16-k0 (antibody, human IgG1, kappa)
heavy 1: not shown
heavy 2: not shown
light: B1 light
notes: as for B29
B34: GpH7-A5/GpH7-B3 variant A330_11K/GpL16-k0 (antibody, human IgG1, kappa)
heavy 1: not shown
heavy 2: not shown
light: B1 light
notes: as for B29
B35: GpH7-A5/GpH7-B3 variant A330_19Q/GpL16-k0 (antibody, human IgG1, kappa)
heavy 1: not shown
heavy 2: not shown
light: B1 light
notes: as for B29
B36: GpH7-A5/GpH7-B3 variant E333_08L/GpL16-k0 (antibody, human IgG1, kappa)
heavy 1: not shown
heavy 2: not shown
light: B1 light
notes: as for B29

These binders were tested against T1, FcγRIa extracellular domain with C-terminal His tag (human, UniProt P12314 16-292) (assay: SPR (Biacore), relative binding, HeCon Ab = 100).
T1 construct: extracellular domain; Expressed in FreeStyle293 cells; analyte in the SPR assay; also called FcgRI; 1a
T1 sequence (P12314 16-292): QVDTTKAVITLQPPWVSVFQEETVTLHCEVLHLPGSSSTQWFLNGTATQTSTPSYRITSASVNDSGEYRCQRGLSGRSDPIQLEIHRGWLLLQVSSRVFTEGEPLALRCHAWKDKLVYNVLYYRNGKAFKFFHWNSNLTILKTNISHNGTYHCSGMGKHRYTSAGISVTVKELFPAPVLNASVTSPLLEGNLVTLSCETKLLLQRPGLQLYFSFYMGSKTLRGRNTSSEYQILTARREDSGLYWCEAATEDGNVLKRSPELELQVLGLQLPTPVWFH

Binder	He/Con_1a
B1	112 % of HeCon Ab (=100)
B2	103 % of HeCon Ab (=100)
B3	102 % of HeCon Ab (=100)
B4	102 % of HeCon Ab (=100)
B5	102 % of HeCon Ab (=100)
B6	104 % of HeCon Ab (=100)
B7	103 % of HeCon Ab (=100)
B8	102 % of HeCon Ab (=100)
B9	103 % of HeCon Ab (=100)
B10	102 % of HeCon Ab (=100)
B11	102 % of HeCon Ab (=100)
B12	103 % of HeCon Ab (=100)
B13	104 % of HeCon Ab (=100)
B14	100 % of HeCon Ab (=100)
B15	102 % of HeCon Ab (=100)
B16	102 % of HeCon Ab (=100)
B17	102 % of HeCon Ab (=100)
B18	103 % of HeCon Ab (=100)
B19	102 % of HeCon Ab (=100)
B20	103 % of HeCon Ab (=100)
B21	101 % of HeCon Ab (=100)
B22	101 % of HeCon Ab (=100)
B23	100 % of HeCon Ab (=100)
B24	100 % of HeCon Ab (=100)
B25	104 % of HeCon Ab (=100)
B26	104 % of HeCon Ab (=100)
B27	101 % of HeCon Ab (=100)
B28	103 % of HeCon Ab (=100)

The binders below were run against T2, FcγRIIb extracellular domain with C-terminal His tag (human, UniProt P31994 43-217) (assay: SPR (Biacore), relative binding, HeCon Ab = 100).
T2 construct: extracellular domain; Expressed in FreeStyle293 cells; analyte in the SPR assay; also called FcgRIIb; 2b
T2 sequence (looked up): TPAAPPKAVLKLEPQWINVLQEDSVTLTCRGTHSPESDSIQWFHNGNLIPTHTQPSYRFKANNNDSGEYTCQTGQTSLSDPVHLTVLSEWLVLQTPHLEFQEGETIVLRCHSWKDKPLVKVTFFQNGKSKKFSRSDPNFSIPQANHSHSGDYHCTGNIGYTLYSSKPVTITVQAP

Binder	He/Con_2b
B1	86 % of HeCon Ab (=100)
B2	90.2 % of HeCon Ab (=100)
B3	77.5 % of HeCon Ab (=100)
B4	74.8 % of HeCon Ab (=100)
B5	64.7 % of HeCon Ab (=100)
B6	88 % of HeCon Ab (=100)
B7	84.3 % of HeCon Ab (=100)
B8	76.8 % of HeCon Ab (=100)
B9	93.3 % of HeCon Ab (=100)
B10	59.5 % of HeCon Ab (=100)
B11	67.9 % of HeCon Ab (=100)
B12	88.6 % of HeCon Ab (=100)
B13	75.7 % of HeCon Ab (=100)
B14	96.3 % of HeCon Ab (=100)
B15	86.5 % of HeCon Ab (=100)
B16	87.6 % of HeCon Ab (=100)
B17	95.4 % of HeCon Ab (=100)
B18	52.3 % of HeCon Ab (=100)
B19	47.7 % of HeCon Ab (=100)
B20	58.1 % of HeCon Ab (=100)
B21	97.3 % of HeCon Ab (=100)
B22	86.1 % of HeCon Ab (=100)
B23	65.9 % of HeCon Ab (=100)
B24	89.2 % of HeCon Ab (=100)
B25	90.4 % of HeCon Ab (=100)
B26	79.7 % of HeCon Ab (=100)
B27	99.8 % of HeCon Ab (=100)
B28	67.5 % of HeCon Ab (=100)

The binders below were run against T3, FcγRIIa R (FcγRIIa allotype with Arg at position 131), extracellular domain with C-terminal His tag (human, UniProt P12318 34-217) (assay: SPR (Biacore), antibody captured, FcγR analyte; vs GpH7-A5/GpH7-B3/GpL16-k0 = 100).
T3 construct: extracellular domain; made in FreeStyle293 cells; analyte in the Biacore assay; also called FcγRIIa type R; 2aR
T3 sequence (looked up): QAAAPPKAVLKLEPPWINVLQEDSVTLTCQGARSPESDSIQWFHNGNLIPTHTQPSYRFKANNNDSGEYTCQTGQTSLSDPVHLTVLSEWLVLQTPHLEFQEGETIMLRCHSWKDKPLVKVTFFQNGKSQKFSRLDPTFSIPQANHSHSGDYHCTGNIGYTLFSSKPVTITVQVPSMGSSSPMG
Protocol: (§1) The heterodimerized antibodies He Abs in which one of the H chains was introduced with an alteration were assayed for their binding activities to each activating FcγR and inhibitory FcγR according to the method described in Example 4. […] The activating FcγRs in FIGS. 26, 27, 28, and 29 are FcγRIa, FcγRIIa (R), FcγRIIa (H), and FcγRIIIa, respectively.
(§2) Analysis of interaction between objective antibody and the FcγR was carried out using Biacore T100 (GE Healthcare). HBS-EP+ (GE Healthcare) was used as the running buffer, and the measurement temperature was set to 25° C. Chips produced by immobilizing the antigen peptide by the amine coupling method to a Series S Sencor Chip CM5 (GE Healthcare), or alternatively, chips produced by allowing preliminarily biotinylated antigen peptides to interact with and immobilize onto a Series S Sensor Chip SA (certified) (GE Healthcare) were used. Antibodies of interest were captured onto an antigen peptide-immobilized chip, and allowed to interact to each FcγR diluted with running buffer. To regenerate and repeatedly use the chip, the antibodies captured on the chip were washed off by reacting 10 mM glycine-HCl, pH 1.5.

Binder	He/Con_2aR
B29	102 relative (HeCon Ab = 100)
B30	104 relative (HeCon Ab = 100)
B31	105 relative (HeCon Ab = 100)
B32	104 relative (HeCon Ab = 100)
B33	102 relative (HeCon Ab = 100)
B34	110 relative (HeCon Ab = 100)
B35	104 relative (HeCon Ab = 100)
B36	103 relative (HeCon Ab = 100)

The binders below were run against T4, FcγRIIb, extracellular domain with C-terminal His tag (human, UniProt P31994 43-217) in the same assay as above.
T4 construct: extracellular domain; made in FreeStyle293 cells; analyte in the Biacore assay; also called 2b; FcgRIIb
T4 sequence (looked up): T2 sequence (looked up)
Protocol: as §1, §2

Binder	He/Con_2b
B29	94.6 relative (HeCon Ab = 100)
B30	96.2 relative (HeCon Ab = 100)
B31	97.7 relative (HeCon Ab = 100)
B32	84.8 relative (HeCon Ab = 100)
B33	95 relative (HeCon Ab = 100)
B34	95 relative (HeCon Ab = 100)
B35	90.8 relative (HeCon Ab = 100)
B36	95 relative (HeCon Ab = 100)
